The values that follow come from article PMC8426336.

The target in this experiment is Trimeric form of SARS-CoV-2 RBD (T-RBD) (SARS-CoV-2 | not stated). Kind of experiment: western blot under reduced and nonreduced conditions. (In general: In western blotting, separated proteins are transferred to a membrane and probed.)

Broadly, the stoichiometry N is a count of units in the complex or per binding partner. Take Trimeric form of SARS-CoV-2 RBD (T-RBD): the stoichiometry N stood at 3.
